# From patent US20080261892A1, “Acid Addition Salts of Ac-Phscn-Nh2” (priority 2005, published 2008)
# Key:
# Format in all cases: physicochemical
# [1] = Solid phase stability of free base, methanesulfonic acid salt and nitric acid salt (HPLC), Example 18; conditions: solid stored at 25±0.5° C.
# Experimental: (§1) All HPLC spectra were taken on a Waters HPLC that included Breeze software, a Waters 2487 Dual λ Absorbance Detector, a Waters 1525 Binary HPLC Pump, and a Waters 717 plus Autosampler. The column was a Phenomenex Synergi 4μ Hydro-RP 80A, 250×4.60 mm 4μ micron. The 40 minute gradient that was used is described in the table below.
# [2] = Solution phase stability of free base, methanesulfonic acid salt and nitric acid salt (HPLC), Example 17; conditions: solution in distilled water, 25±0.5° C.
# Experimental: as §1
# A t=0 h timepoint was taken for each solution. The volumetric flasks were placed in a water bath at 25±0.5° C. and, periodically, a 0.7 mL aliquot was removed and the solution analyzed by HPLC as described in Example 15.
# [3] = Solid phase stability of free base and hydrochloride salt (monomer vs dimer by HPLC), Example 16; conditions: for % dimer / % monomer: solid stored at 25±1° C.
# Experimental: as §1
# (§2) The HPLC peak for Ac-Pro-His-Ser-Cys-Asn-NH2 monomer at approximately 9.2 minutes, and the peak for ATN-161 dimer at approximately 10.0 minutes were integrated in order to determine the percentage of these two species in each sample.
# Samples of 0.8-1.2 mg of Ac—PHSCN—NH2 and Ac—PHSCN—NH2 hydrochloride salt were weighed into HPLC sample vials and stored at 25±1° C. A 0 h time point was taken. Samples were periodically removed and diluted with distilled water to give a 1 mg/mL solution. The amount of dimerization was determined by HPLC as described in Example 15. The results are illustrated graphically in FIG. 3.
# [4] = Solution phase stability of free base and hydrochloride salt (monomer vs dimer by HPLC), Example 15; conditions: for % dimer / % monomer: solution in distilled water, 25±1° C.
# Experimental: A 1.657 mM solution of Ac—PHSCN—NH2 in distilled water and a 1.653 mM solution of the hydrochloride salt of Ac—PHSCN—NH2 in distilled water were placed in a water bath at 25±1° C. Aliquots (800 μL) were periodically removed and the amount of dimerization was determined by HPLC.
# as §1
# Mobile Phase A: 0.1% TFA in acetonitrile Mobile Phase B: 0.1% TFA in water
# as §2
substance,measurement,setting,value
Ac-Pro-His-Ser-Cys-Asn-NH2 Methanesulfonic Acid Salt (Ac-PHSCN-NH2; also: methanesulfonic acid salt),% dimer,[1]; 0 h,6.8%
same,% monomer,[1]; 0 h,93.2%
same,% dimer,[1]; 161 h,7.2%
same,% monomer,[1]; 161 h,92.8%
same,% dimer,[1]; 335 h,7.5%
same,% monomer,[1]; 335 h,92.5%
same,% dimer,[1]; 498 h,7.0%
same,% monomer,[1]; 498 h,93.0%
same,% dimer,[1]; 670 h,7.7%
same,% monomer,[1]; 670 h,92.3%
same,% dimer,[1]; 832 h,7.2%
same,% monomer,[1]; 832 h,92.8%
same,% dimer,[1]; 1003 h,7.2%
same,% monomer,[1]; 1003 h,92.8%
same,% dimer,[1]; 1170 h,7.3%
same,% monomer,[1]; 1170 h,92.7%
same,% dimer,[1]; 1363 h,8.6%
same,% monomer,[1]; 1363 h,91.4%
same,% dimer,[1]; 1506 h,7.6%
same,% monomer,[1]; 1506 h,92.4%
same,% dimer,[1]; 1698 h,8.1%
same,% monomer,[1]; 1698 h,91.9%
same,% dimer,[2]; 0 h,7.4%
same,% monomer,[2]; 0 h,92.6%
same,% dimer,[2]; 69 h,22.6%
same,% monomer,[2]; 69 h,77.4%
same,% dimer,[2]; 140 h,30.3%
same,% monomer,[2]; 140 h,69.7%
same,% dimer,[2]; 213 h,37.2%
same,% monomer,[2]; 213 h,62.8%
same,% dimer,[2]; 332 h,48.0%
same,% monomer,[2]; 332 h,52.0%
same,% dimer,[2]; 408 h,54.5%
same,% monomer,[2]; 408 h,45.5%
same,% dimer,[2]; 479 h,60.5%
same,% monomer,[2]; 479 h,39.5%
same,% dimer,[2]; 549 h,66.7%
same,% monomer,[2]; 549 h,33.3%
same,% dimer,[2]; 645 h,74.3%
same,% monomer,[2]; 645 h,25.7%
same,% dimer,[2]; 720 h,79.5%
same,% monomer,[2]; 720 h,20.5%
same,% dimer,[2]; 836 h,84.8%
same,% monomer,[2]; 836 h,15.2%
"Ac-Pro-His-Ser-Cys-Asn-NH2, hydrochloride salt (Ac-PHSCN-NH2; also: hydrochloride salt)",% dimer,[3]; 0 h,0%
same,% monomer,[3]; 0 h,100%
same,% dimer,[3]; 73 h,0%
same,% monomer,[3]; 73 h,100%
same,% dimer,[3]; 143 h,0%
same,% monomer,[3]; 143 h,100%
same,% dimer,[3]; 243 h,0%
same,% monomer,[3]; 243 h,100%
same,% dimer,[3]; 312 h,0%
same,% monomer,[3]; 312 h,100%
same,% dimer,[3]; 410 h,0%
same,% monomer,[3]; 410 h,100%
same,% dimer,[3]; 576 h,0.3%
same,% monomer,[3]; 576 h,99.7%
same,% dimer,[3]; 677 h,0.7%
same,% monomer,[3]; 677 h,99.3%
same,% dimer,[3]; 818 h,0%
same,% monomer,[3]; 818 h,100%
same,% dimer,[4]; 0 h,0%
same,% monomer,[4]; 0 h,100%
same,% dimer,[4]; 69 h,3.3%
same,% monomer,[4]; 69 h,96.7%
same,% dimer,[4]; 140 h,6.1%
same,% monomer,[4]; 140 h,93.9%
same,% dimer,[4]; 188 h,6.4%
same,% monomer,[4]; 188 h,93.6%
same,% dimer,[4]; 236 h,6.8%
same,% monomer,[4]; 236 h,93.2%
same,% dimer,[4]; 309 h,6.7%
same,% monomer,[4]; 309 h,93.3%
same,% dimer,[4]; 357 h,6.7%
same,% monomer,[4]; 357 h,93.3%
same,% dimer,[4]; 404 h,7.3%
same,% monomer,[4]; 404 h,92.7%
same,% dimer,[4]; 477 h,8.4%
same,% monomer,[4]; 477 h,91.6%
same,% dimer,[4]; 525 h,9.0%
same,% monomer,[4]; 525 h,91.0%
same,% dimer,[4]; 622 h,10.7%
same,% monomer,[4]; 622 h,89.3%
Ac-Pro-His-Ser-Cys-Asn-NH2 (Ac-PHSCN-NH2) [Free Base],% dimer,[1]; 0 h,6.1%
same,% monomer,[1]; 0 h,93.9%
same,% dimer,[1]; 161 h,11.6%
same,% monomer,[1]; 161 h,88.4%
same,% dimer,[1]; 335 h,12.5%
same,% monomer,[1]; 335 h,87.5%
same,% dimer,[1]; 498 h,14.6%
same,% monomer,[1]; 498 h,85.4%
same,% dimer,[1]; 670 h,14.8%
same,% monomer,[1]; 670 h,85.2%
same,% dimer,[1]; 832 h,15.7%
same,% monomer,[1]; 832 h,84.3%
same,% dimer,[1]; 1003 h,17.0%
same,% monomer,[1]; 1003 h,83.0%
same,% dimer,[1]; 1170 h,16.5%
same,% monomer,[1]; 1170 h,83.5%
same,% dimer,[1]; 1363 h,17.6%
same,% monomer,[1]; 1363 h,82.4%
same,% dimer,[1]; 1506 h,18.6%
same,% monomer,[1]; 1506 h,81.4%
same,% dimer,[1]; 1698 h,19.2%
same,% monomer,[1]; 1698 h,80.8%
same,% dimer,[2]; 0 h,7.8%
same,% monomer,[2]; 0 h,92.2%
same,% dimer,[2]; 69 h,26.1%
same,% monomer,[2]; 69 h,73.9%
same,% dimer,[2]; 140 h,30.7%
same,% monomer,[2]; 140 h,69.3%
same,% dimer,[2]; 213 h,35.0%
same,% monomer,[2]; 213 h,65.0%
same,% dimer,[2]; 332 h,42.5%
same,% monomer,[2]; 332 h,57.5%
same,% dimer,[2]; 408 h,46.4%
same,% monomer,[2]; 408 h,53.6%
same,% dimer,[2]; 479 h,51.0%
same,% monomer,[2]; 479 h,49.0%
same,% dimer,[2]; 549 h,56.2%
same,% monomer,[2]; 549 h,43.8%
same,% dimer,[2]; 645 h,68.9%
same,% monomer,[2]; 645 h,31.1%
same,% dimer,[2]; 720 h,82.2%
same,% monomer,[2]; 720 h,17.8%
same,% dimer,[2]; 836 h,98.5%
same,% monomer,[2]; 836 h,1.5%
same,% pure in the solid phase,"[3]; solid phase, after more than 800 hours at room temperature, i.e., 23-25° C.",greater than 82%
same,% dimer,[3]; 0 h,8.5%
same,% monomer,[3]; 0 h,91.5%
same,% dimer,[3]; 73 h,10.0%
same,% monomer,[3]; 73 h,90.0%
same,% dimer,[3]; 143 h,11.5%
same,% monomer,[3]; 143 h,88.5%
same,% dimer,[3]; 243 h,12.7%
same,% monomer,[3]; 243 h,87.3%
same,% dimer,[3]; 312 h,14.0%
same,% monomer,[3]; 312 h,86.0%
same,% dimer,[3]; 410 h,13.8%
same,% monomer,[3]; 410 h,86.2%
same,% dimer,[3]; 576 h,15.2%
same,% monomer,[3]; 576 h,84.8%
same,% dimer,[3]; 677 h,16.1%
same,% monomer,[3]; 677 h,83.9%
same,% dimer,[3]; 818 h,17.9%
same,% monomer,[3]; 818 h,82.1%
same,"conversion to other products (e.g., the dimer)",[4]; in solution after more than 500 hours at room temperature,completely converted to other products
same,% dimer,[4]; 0 h,6.7%
same,% monomer,[4]; 0 h,93.3%
same,% dimer,[4]; 69 h,17.4%
same,% monomer,[4]; 69 h,82.6%
same,% dimer,[4]; 140 h,23.5%
same,% monomer,[4]; 140 h,76.5%
same,% dimer,[4]; 188 h,28.1%
same,% monomer,[4]; 188 h,71.9%
same,% dimer,[4]; 236 h,34.3%
same,% monomer,[4]; 236 h,65.7%
same,% dimer,[4]; 309 h,38.9%
same,% monomer,[4]; 309 h,61.1%
same,% dimer,[4]; 357 h,43.3%
same,% monomer,[4]; 357 h,56.7%
same,% dimer,[4]; 404 h,51.4%
same,% monomer,[4]; 404 h,48.6%
same,% dimer,[4]; 477 h,68.7%
same,% monomer,[4]; 477 h,31.3%
same,% dimer,[4]; 525 h,83.2%
same,% monomer,[4]; 525 h,16.8%
same,% dimer,[4]; 622 h,100%
same,% monomer,[4]; 622 h,0%
